Assay: soluble on expression in E. coli; label from the status in PepcDB or PDB records

Sequence	soluble on expression in E. coli
MMMDILMYLFETYVHSDADLQVDQDQLEDELLRAGFHQKDIYKALHWLEELAALQQTDAQTAIAKSAPTSMRIYAPEEIERLDLESRGFLLFLEHINVLTPETREMVIDRVMGLETDEFELDDLKWIILMVLFNVPGNENAYTVMEELLYSKEQGILH	not soluble
MNKAAQKVLKLLGHTEIARVNSSCGAEQEYFLVDSNFAHQRPDLLLAGRTLFGKSPAKGQEFDDHYFGAIPERVQIFMQDVEAQLYKLGIPAKTRHNEVAPGQFEIAPVFEAANVASDHQQLIMTTLKTTAKKHGFMCLLHEKPFAGINGSGKHVNWSVGNATQGNLLDPGDSPHDNAQFLVFCGAVIRGVHKFGPLMRAVIANASNDHRLGANEAPPAIMSVYLGSQLEEVFEQIKNGTVSESKKKGVMDLGVAVLPELTKDAGDRNRTSPFAFTGNRFEFRAVGSSQSVSGPLVALNTILADSLGWIGDRLESELAKGLEISEAILTVLKEIMNDHGSVIFGGNGYSEEWHREAVQERGLRNLPTTADALPVLKEDEVVALFDQLKVLTPIELESRFEVYAEQYIKSIEV	not soluble
MTAPTLAPIDPPARAQLLTDLQGAPDWDVIVIGGGATGLGTAVDAAARGYRTLLVEAADFAKGTSSKATKLVHGGVRYLAQGNISLVREALHERGLLNRNAPHLVWPLGFVVPAYSLLDQPFYGVGLKMYDMLAGKLNLAPSRWLSRGETLRHAATVAERVNGRALRGGILYYDGQFDDARLAIALMRTLYDLGGVALNYARAVGLTRTDGRVDGVTVADALGELRVTLRAKCVVNATGVWVDAVRRMDDPAAQTMVAPSQGVHLTLPRDFLPGEDAILIPKTDDGRVLFVVPWNGHTIVGTTDTPRTDLPLDPQAGQNEIDFILATAARYLSRKPTRADVTSVWAGLRPLVKATGEASTKSLSREHTIVVSKGGLVTVTGGKWTTYRKMAQDVVDTAIEHKLLAAAPCRTSELPLHGAPADGQPNGAPHGTPDSYYGTDLATLRALPGADRMLVKASALTEAHVRYAARHELARTVEDVLARRNRALFLDAEAALLAAPEVARILAQELGHDEAWSRATLAEFEAVAAHYRLALEHHHHHH	not soluble
MSSRGVTAPQGFVAAGATAGIKPSGNKDMALVVNQGPEFVGAAVFTRNRVVASPVKYTKKAVANGTLRAVLYNSGNANACNGVQGDKDVHEIVDYLASKLKVDPLDIAACSTGLIGEPLPVTMIKAGVDKLIPALGDNGGEAADSIMTTDTVAKETVVKCNGWTLGGMGKGVGMMAPSLATMLVCLTTDACVTQAQAHAALSKACDVTFNTLDIDGSTSTNDTVILLANGASGITPTESEFNDAVLQACADIADQLQADAEGVTKRVRITVTGTTTDSQALNAARTLGRDNLFKCAMFGSDPNWGRVLAAVGMADADMDPDNISVYFNDQPVCLQSGGTPEARQVDLSGIDIDVRVDLGTGGPGKAFVRTTDLSHQYVEINSAYSSLEHHHHHH	not soluble
MLARTIQRFSVVAKRGYAAAAPAANANPEELRLTFASPDTAVFSNAVVKQVDVPTLAGMVGVLANHVPTIGVLKPGVVSVTTNEGTVQRLFVSSGTLSVNIDGSCQVLAEEVLKVEEIDESAARAELDAAQRASGEGSEVARAEAQIRAEVAEALIKAATNQQ	not soluble
MSLAKLRPTKTFKPKPPAGLPDRETLLAFLRDAGETGKADIARHFGLKGADRRALREMIRELEAQGALAKRGRKGFAEAGSLPPVGVADVVERDGDGELYVKLTKSDDDVPNVRLAPGKGEAAAGAPGLGDRLLVRFERLETGEFEAKLIKKLGQSAHKILGVIRKHRREVRVEPVDRKSKESLVLDPSVAHDFKEGDLVLAQVGTHGGRYGPKPGKVLEVVGTENDPRAASLIAIHSHGIPTGFSEAAEAEAKTAVEPTLAGREDLRDLPFVTIDPVDARDHDDAVYAHPDEDETNKGGFVVWVAIADVAAYVRPGSALDRDAREKGNSVYFPDRVEPMLPETLSNGLCSLRESENRATLAVRMVFDKSGRKKGHRFVRGLMRSAAKLSYEQAQAAIDGQPDDKAGPLLDPILKPLWDAYRTMKIGRDARSPLAIESDERRIIIKGGEITSITKRASLEAHKLIEEMMVQANVCAAESLEAKRSPLIYRVHDTPSLEKVQNLADFLQTLEIRWSKGEAPQTARFNKLLEETRESPNAAIINEVVLRTQMQAHYSADNIGHFGLNLAKYAHFTSPIRRYADLIVHRGLIRALGLGTDGLTDQDIAQIKDTAEVITHAERRAMAAERDATDRYIAAFLADRVGATFEGRITGVTRFGLFIKLADTGADGLVPVSSLGQEFFVHDDKMHALVGERTGKRWPLGLSVEVKLVEATPVTGGLLFEMLSEPLPPDPKMPRPRLGARRQAAVKPRGGLPKGVRRGKRREGHHHHHH	soluble
MVRDMRFCYRCGISEEEGGPLINGLCQVCFRKENPVLLLPSEINTELCQNCGSYKKRGVWVDPKNYELEALIFEVAENALLEALEDNLKVKDFEVVNWEELDEISEIPVGKAFVAYRVVDYHIEYFPAIVIYEVRSKARIHELQVEPHDERTTVTVYVRQTVCPRCQKFLAGYYEAILQVRVEGREFTKEEREEITKLVQEKVDEIMKRDRMGFIQDTIEKEEGIDFYMGSTSAARKLANAIREKYGGTISEAYELVGMDRQTSREVYRTSVTVRLPKFRKGDVVEDRYGRVYEVEEVNGKGMRLKNLETWKSEHYDWKTIKRERVDLANYEEKKAMLVSKTPSEVQFMDMETYETFEVKKPTDELKEGEVYTVVRVKGRMYVKEEVKELEHHHHHH	soluble
MKKLAIVIPAYKVDFFETVLFSLAQQTCKDFTVYIGEDCSRDDFKSLIEQYSKQLDIVYRRFEVNFGGHDLVAQWNRCIQLTQNEPWLWLFSDDDIMGPRCVEYFFNTIAIDNGAFDIYHFDVKIVDCENQIVRIPTVYPSVIDSETFYRRKASARLDSFVVEYIFLRDIYNCTGGFQHFDLAWGSDIATWVKIGADKGIKTISGDYVYWRKSKKNITPNMDNKMVLRKLTADIEFTHWINEFFHKSSVYRFTKYAFFRLVVHYSQAISKSQIRLLLDKAVGKNIISFNDAFIINWTYRFIQLAKRVKDVLYFLEHHHHHH	soluble
MGSDKIHHHHHHMENIALLGIDLGKHIFHVHAQDKAGHQLWRRKLNRKQLVELVANTPACRIVMESCSGAHHFARRFLQFGHDVKLIAPQYVKPFVKGNKNDFVDAEAICEAASRPAMRFAAVRNEQQQTISALHRTRDMLIRSRGSAHNQIHAYLVEFGVAIGTGPAAIRKLPAVLQAMTYRRALSPCWSNFGITFFISTSRSPLSSAN	not soluble
MTSLQRKGPQTRILSTGEEEKLKRDQALVSAFKQQKLEKEAQKNWDLFYKRNSTNFFKDRHWTTREFEELRSCREYEGQKLTLLEAGCGVGNCLFPLLEEDSNIFAYACDFSPRAVDYVKQHPLYNAERCKVFQCDLTRDDLLDHIPPESVDAVTLIFVLSAVHPEKMHLVLLNVYKVLKPGRSVLFRDYGLNDHAMLRFKAGSKLGENFYVRQDGTRSYFFTDEFLAKLFVDAGYEEVVNEYVFRETVNKKEGLCVPRVFLQSKFRKPPKDPAPTTDSASLLRKEF	not soluble
MPGRKRKLAAKTAELAPEAGEGSESTSLVGSADASASTAAGVAHTEQQEMPSGGLHESFLESIPPAASFLEELAWVESLASPSYVAYLCQMRRFDDVVAQRRLTTLQRWRQDPAYRQHVSQPIALFFLEQLCSAEFREALRHPAVAALYERQVDLYRRCYGNLLNTGESRVLR	not soluble
MGSDKIHHHHHHMRRKDATWILTAQCPSRLGTVDVVTRFLKECRCYITEQQSFDDRHGERFFIRTAFQPEETDFDADTFQAAFAARAAEFDMVFELTAPEARMPVVIMVSKADHCLNDLLYRYRTGQLPVTIRAVISNHPDLEPLVAWHDLPYYHLPITPETKAEQEAEVWRVIESTGAELVILARYMQVLSSELCEKLTGKAINIHHSLLPGFKGAKPYHQAFEKGVKLVGATAHYINDDLDEGPIITQGVEPVSHADDPEDLVAKGRDIECLTLARAVSLHLERRVFLHARRTVVFAR	not soluble
SEAQQKNYTFRCLQMSSFANRSWSRTDSVVWLGDLQTHRWSNDSATISFTKPWSQGKLSNQQWEKLQHMFQVYRVSFTRDIQELVKMMSPKEDYPIEIQLSAGCEMYPGNASESFLHVAFQGKYVVRFWGTSWQTVPGAPSWLDLPIKVLNADQGTSATVQMLLNDTCPLFVRGLLEAGKSDLEKQEKPVAWLSSVPSSAHGHRQLVCHVSGFYPKPVWVMWMRGDQEQQGTHRGDFLPNADETWYLQATLDVEAGEEAGLACRVKHSSLGGQDIILYWGSLHHILDAQKMVWNHRHHHHHH	soluble
